Results on four molecules are retold here after patent US20090005298A1 (published 2009).

Test [1] concerns the target T1, Rat tail tendon type I collagen (rat, UniProt P02454 152-1207; P02466 86-1125). Briefly: solid-phase collagen-binding assay, anti-His detection, one-site binding model.
For test [2], the target named is T1, Rat tail tendon type I collagen. Briefly: cell-based or functional assay.

T1 sequence (P02454 152-1207 limits assumed, chain 1 of 2): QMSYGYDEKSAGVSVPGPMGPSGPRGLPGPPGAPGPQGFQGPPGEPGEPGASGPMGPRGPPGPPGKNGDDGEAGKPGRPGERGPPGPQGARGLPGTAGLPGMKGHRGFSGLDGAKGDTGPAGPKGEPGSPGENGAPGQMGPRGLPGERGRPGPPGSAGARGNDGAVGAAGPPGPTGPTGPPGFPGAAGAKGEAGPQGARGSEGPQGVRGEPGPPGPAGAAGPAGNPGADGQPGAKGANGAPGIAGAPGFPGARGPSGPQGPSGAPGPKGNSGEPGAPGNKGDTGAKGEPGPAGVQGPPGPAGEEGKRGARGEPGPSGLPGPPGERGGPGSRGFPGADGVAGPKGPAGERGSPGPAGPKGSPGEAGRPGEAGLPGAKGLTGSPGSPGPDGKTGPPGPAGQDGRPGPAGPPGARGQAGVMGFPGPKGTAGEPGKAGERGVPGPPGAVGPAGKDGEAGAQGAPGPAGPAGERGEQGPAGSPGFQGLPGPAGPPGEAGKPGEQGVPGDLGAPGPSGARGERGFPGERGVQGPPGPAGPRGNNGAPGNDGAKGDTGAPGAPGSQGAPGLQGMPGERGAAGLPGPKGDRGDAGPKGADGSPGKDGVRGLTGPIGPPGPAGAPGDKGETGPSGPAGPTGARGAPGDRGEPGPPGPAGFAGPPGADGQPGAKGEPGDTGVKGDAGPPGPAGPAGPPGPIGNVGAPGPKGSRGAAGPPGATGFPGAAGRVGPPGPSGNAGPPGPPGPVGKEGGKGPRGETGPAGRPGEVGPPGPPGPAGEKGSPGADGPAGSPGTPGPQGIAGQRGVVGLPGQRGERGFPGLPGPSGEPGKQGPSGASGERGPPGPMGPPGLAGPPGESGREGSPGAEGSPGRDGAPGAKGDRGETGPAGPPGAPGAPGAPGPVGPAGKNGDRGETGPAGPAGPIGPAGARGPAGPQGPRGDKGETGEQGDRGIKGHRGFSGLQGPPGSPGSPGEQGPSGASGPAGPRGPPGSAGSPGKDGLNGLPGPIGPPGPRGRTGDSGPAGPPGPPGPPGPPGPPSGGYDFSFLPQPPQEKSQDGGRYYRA
T1 sequence (P02466 86-1125 limits assumed, chain 2 of 2): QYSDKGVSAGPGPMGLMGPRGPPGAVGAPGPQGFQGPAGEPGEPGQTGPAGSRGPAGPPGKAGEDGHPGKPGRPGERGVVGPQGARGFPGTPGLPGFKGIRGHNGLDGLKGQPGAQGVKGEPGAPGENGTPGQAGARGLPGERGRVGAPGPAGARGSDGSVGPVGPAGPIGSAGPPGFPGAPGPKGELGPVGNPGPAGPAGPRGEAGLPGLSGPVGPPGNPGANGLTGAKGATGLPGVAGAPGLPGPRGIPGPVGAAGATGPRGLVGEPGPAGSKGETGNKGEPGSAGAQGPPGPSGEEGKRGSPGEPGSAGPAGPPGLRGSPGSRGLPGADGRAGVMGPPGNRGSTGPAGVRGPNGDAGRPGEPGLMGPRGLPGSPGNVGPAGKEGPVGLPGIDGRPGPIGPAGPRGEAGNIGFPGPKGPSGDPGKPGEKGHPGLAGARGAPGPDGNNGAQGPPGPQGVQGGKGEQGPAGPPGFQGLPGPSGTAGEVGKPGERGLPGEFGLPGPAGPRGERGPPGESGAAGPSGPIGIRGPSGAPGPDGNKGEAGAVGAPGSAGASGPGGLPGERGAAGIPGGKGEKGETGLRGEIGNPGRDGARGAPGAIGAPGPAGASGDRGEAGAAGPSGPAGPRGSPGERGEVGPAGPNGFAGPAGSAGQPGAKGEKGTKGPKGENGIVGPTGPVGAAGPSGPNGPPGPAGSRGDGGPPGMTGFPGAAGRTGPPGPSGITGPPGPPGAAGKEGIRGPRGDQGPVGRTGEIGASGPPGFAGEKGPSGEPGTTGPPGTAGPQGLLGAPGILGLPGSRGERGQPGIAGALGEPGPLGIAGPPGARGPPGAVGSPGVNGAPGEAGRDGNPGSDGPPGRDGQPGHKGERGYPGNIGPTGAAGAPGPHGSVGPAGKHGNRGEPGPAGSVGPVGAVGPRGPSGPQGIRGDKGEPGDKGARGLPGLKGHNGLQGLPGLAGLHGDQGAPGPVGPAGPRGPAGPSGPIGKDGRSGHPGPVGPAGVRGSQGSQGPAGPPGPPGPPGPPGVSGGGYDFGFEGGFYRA

By Kd is commonly meant the equilibrium constant for the complex coming apart. The low end stands for tighter binding, the high end for weaker binding. Molecule “rBSP(1-75) (from UniProt P13839 1-75) (peptide)” came in with an equilibrium dissociation constant (Kd) in test [1] of 4.04 nM.

In turn, “rBSP(1-100) (from UniProt P13839 1-100) (peptide)” came in with a Kd in test [1] of 5.64 nM.

The molecule “rBSP(19-100) (from UniProt P13839 19-100) (peptide)” yielded a Kd in test [1] of 50.3 nM.

B1: Rat recombinant BSP (rBSP) (other)
chain: FSMKNFHRRIKAEDSEENGVFKYRPRYFLYKHATYFYPPLKRFPVQGGSDSSEENGDGDSSEEEGEEEETSNEEENNEDSEGNEDQEAEAENATLSGVTASYGVETTADAGKLELAALQLPKKAGDAEGKAPKMKESDEEEEEEEEEENENEEAEVDENEQVVNGTSTNSTEVDGGNGPSGGDNGEEAEEASVTEAGAEGTTAGVRELTSYGTTTAVLLNGFQQTTPPPEAYGTTSPPARKSSTVEYGEEYEQIGNEYNTAYETYDENNGEPRGDTYRAYEDEYSYYKGHGYEGYEGQDYYYHQ
modifications: biotinylated with Sulfo-NHS-Biotin where used as the labelled protein in competition assays
Turning to B1, the “nucleating activity of rBSP in a collagen scaffold (hydroxyapatite nucleation)” value in test [2] is 0.025 nmol. Moreover, binding in test [1] was characterised by a dissociation constant (Kd) of 22.9 nM.
